Measured values as given in the nanobody polyreactivity screen of Harvey et al. (2022).

experiment: yeast display, Sf9 membrane polyspecificity reagent, FACS + sequencing; frameworks hold sequencing errors
In short: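 Genes from sorted yeast were amplified by colony PCR, read by MiSeq 2 × 250 sequencing and filtered on CDR length. These cells carried a synthetic nanobody library in Saccharomyces cerevisiae BJ5465 and were sorted by FACS into low and high (top ~1%) gates on anti-HA and streptavidin fluorescence. Polyreactivity is labelled according to the gate of origin.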

Question: With “QVQLVESGGGLVQAGGSLRLSCAASGSTFWFYAMGWYRQAPGKERELVAVISNYGSTYYADSVKGRFTISRDNAKNTVYLQMNSLITEDTAVYSCNKDGGGDSYWYDYWGQGTQVTVSS” as the sequence, how does the “polyreactivity (PSR sort gate)” value read?
Answer: low polyreactivity

Question: With “QVQLVESGGGLVQAGGSLRLSCAASGSTFWGYAMGWYRQAPGTERELVAAITRNGGGTYYADSVKGRFTISRDNAKNTVYLQMNSLKPEDTAVYYCAATRRAYYLYGGQKMDYWGQGTQVTVSS” as the sequence, how does the “polyreactivity (PSR sort gate)” value read?
Answer: high polyreactivity

Question: For “QVQLVESGGGLVQAGGSLRLSCAASGSTFWGYTMGWYRQAPGKERELVAAITSGGSTNYADSVKGRFTISRDNAKNTVYLQMNSLKPEDTAVYYCNAVYPGRRRYRKWYIYDYWGQGTQVTVSS”, which “polyreactivity (PSR sort gate)” value is on record?
Answer: high polyreactivity

Question: Which “polyreactivity (PSR sort gate)” value does the source give for “QVQLVESGGGLVQAGGSLRLSCAASGSTFWIYAMGWYRPAPGKERELVAAITLRSGSTYYADSVKGRFTISRDNAKNTVYLQMNSLKPEDTAVYYCAKDYYGTYYAQYNYWGQGTQVTVSS” here?
Answer: low polyreactivity

Question: Which “polyreactivity (PSR sort gate)” value does the source give for “QVQLVESGGGLVQAGGSLRLSCAASGSTFWIYAMGWYRQAPGKERELVAAITLRSGSTYYADSVKGRFTISRDNAKNTVYLQMYSLKPEDTAVYYCATDSWGVDRPNYNYWGQGTQVTVSS” here?
Answer: low polyreactivity

Question: With “QVQLVESGGGLVQAGGSLRLSCAASGSTFWIYPMGWYRQAPGKERELVAAISNGDSTNYADSVKGRFTISRDNAKNTVYLQMNSLKPEDTAVYYCARQYRIFKTFKYDYWGQGTQVTVSS” as the sequence, how does the “polyreactivity (PSR sort gate)” value read?
Answer: low polyreactivity

Question: Which “polyreactivity (PSR sort gate)” value does the source give for “QVQLVESGGGLVQAGGSLRLSCAASGSTFWKYAMGWYRQAPGKERELVASIRSGGSTYYADSVKGRFTISRDNAKNNVYLQMNSLKPEDTAVYYCNAMSRTVSHEADDYWGQGTQVTVSS” here?
Answer: high polyreactivity

Question: For “QVQLVESGGGLVQAGGSLRLSCAASGSTFWLNAMGWYRQAPGKERELVADISRSGGSTYYADSVKGRFTISRDNAKNTVYLQMNSLKPEDTAVYYCAADSWPDQFTVYPGGDYWGQGTQVTVSS”, which “polyreactivity (PSR sort gate)” value is on record?
Answer: low polyreactivity

Question: With “QVQLVESGGGLVQAGGSLRLSCAASGSTFWLYAMGRYRPAPGKERELVASISSRGGSTYYADSVKGRFTISRDNAKNTVYLQMNSLKPEDTAVYYCAAKDIRYDDDYWGQGTQVTVSS” as the sequence, how does the “polyreactivity (PSR sort gate)” value read?
Answer: low polyreactivity

Question: With “QVQLVESGGGLVQAGGSLRLSCAASGSTFWLYAMGWYRQAPGKERELVAAIRSGDRTNYADSEKGRFTISRDNAKNTVYLQMNSLKPEDTAVYYCAAVAYLNWTPHYYWGQRTQVTVSS” as the sequence, how does the “polyreactivity (PSR sort gate)” value read?
Answer: low polyreactivity

Question: For “QVQLVESGGGLVQAGGSLRLSCAASGSTFWPNAMGWYRQAPGKERELVAAISWSSSSGGRTYYADSVKGRFTISRDNAKNTVYLQMNSLKPEDTAVYYCNASYRDEDDYWGQGTQVTVSS”, which “polyreactivity (PSR sort gate)” value is on record?
Answer: high polyreactivity

Question: Which “polyreactivity (PSR sort gate)” value does the source give for “QVQLVESGGGLVQAGGSLRLSCAASGSTFWRYAMGWYRQAPGKERELVAAITRRGSSTYYADSVKGRFTISRDNAKNTVVLQMNSLKPEDTAVYYCAAPGYVRTGVTYGGYYWGQGTQVTVSS” here?
Answer: high polyreactivity

Question: With “QVQLVESGGGLVQAGGSLRLSCAASGSTFWSYAMGWYRQAPGKEREFVAAISSSDDSTYYADSVKGRFTISRDNAKNTVYLQMNSMKPEDTAVYYCATSWYIYPYDYWGQGTQVTVSS” as the sequence, how does the “polyreactivity (PSR sort gate)” value read?
Answer: low polyreactivity

Question: With “QVQLVESGGGLVQAGGSLRLSCAASGSTFWSYAMGWYRQAPGKERELVAAISYRGTRTRYADSVKGRFTISRDNAKNTVYLQMNSLKPEDTAVYYCAADRTFYGIRFDYWGQGTQVTVSS” as the sequence, how does the “polyreactivity (PSR sort gate)” value read?
Answer: high polyreactivity

Question: Which “polyreactivity (PSR sort gate)” value does the source give for “QVQLVESGGGLVQAGGSLRLSCAASGSTFWSYAMGWYRQAPGKERELVAVITGSDGRTFYADSVKGRFTISRDNAKNTVYFQINSLKPEDTAVYYCAADAVFRATRDDRSTSEDDYWGQGTQVTVSS” here?
Answer: low polyreactivity

Question: For “QVQLVESGGGLVQAGGSLRLSCAASGSTFWVYGMGWYRQAPGKERELVADITSIGGSTYYADSVKGRFTISRDNAKNTVYLQMNSLKPEDTAVYYCAARETWYPYYWMGYWGQGTQVTVSS”, which “polyreactivity (PSR sort gate)” value is on record?
Answer: high polyreactivity

Question: With “QVQLVESGGGLVQAGGSLRLSCAASGSTFWWKTMGWYRLAPGKERELVADIRTSGGGTYYADSVKGRFTISRDNAKNNVYLQMYSLKPEDTAVYYCNADPKWEMGSWGQGTQVTVSS” as the sequence, how does the “polyreactivity (PSR sort gate)” value read?
Answer: low polyreactivity

Question: With “QVQLVESGGGLVQAGGSLRLSCAASGSTFWWYAMGWYRQAPGKERELVAAISYSGSSTYYADSVKGRFTISRDNAKNTVYLQMNSLKPEDTAVYYCAADIQYYYNFYPGDYWGQGTQVTVSS” as the sequence, how does the “polyreactivity (PSR sort gate)” value read?
Answer: low polyreactivity

Question: For “QVQLVESGGGLVQAGGSLRLSCAASGSTFWYNAMGWYRQAPGKERELVAAISASGGSTYYADSVKGRFTISRDNAKNTVYLQMNSLKPEDTAVYYCAAGSFWGYSRYRTYYGFDYWGQGTQVTVSS”, which “polyreactivity (PSR sort gate)” value is on record?
Answer: high polyreactivity

Question: Which “polyreactivity (PSR sort gate)” value does the source give for “QVQLVESGGGLVQAGGSLRLSCAASGSTFWYYAMGWYRQAPGKEREFVAAINRSGASTYYADSVKGRFTISRDNAKNTVYLEMNSLKPEDTAVYYCAAAVYLQYLDDPTYGYWGQGTQVTVSS” here?
Answer: high polyreactivity

Question: Which “polyreactivity (PSR sort gate)” value does the source give for “QVQLVESGGGLVQAGGSLRLSCAASGSTFWYYAMGWYRQAPGKERELVASITYSGGSTYYADSVKGRFTISRDNAKNTVSLQMNSLKPEDTAVYYCAAEGYYSNYHYWGQGTQVTVSS” here?
Answer: low polyreactivity

Question: For “QVQLVESGGGLVQAGGSLRLSCAASGSTFWYYTMGWSRQAPGKERELVAGITSGGSTYYADSVKGRFTISRDNAKNTVYLQMNSLKPEDTAVYYCAKRYYGRGYYYWGQGTQVTVSS”, which “polyreactivity (PSR sort gate)” value is on record?
Answer: high polyreactivity

Question: For “QVQLVESGGGLVQAGGSLRLSCAASGSTFYAKAMGWYRQAPGKERELVATINRRGNTYYADSVKGRFTISRDNAKNTVYLQMNSLKPEDTAVYYCAADYRRYGSYDYWGQGTQVTVSS”, which “polyreactivity (PSR sort gate)” value is on record?
Answer: low polyreactivity

Question: With “QVQLVESGGGLVQAGGSLRLSCAASGSTFYANAMGWYRQAPGKDRELVAAITRSGAGTYYADSVKGRFTISRDNAKNTGYLQMNSLKPEDTAVYYCAKRTKTPTGYVWGGYDYWGQGTQVTGSS” as the sequence, how does the “polyreactivity (PSR sort gate)” value read?
Answer: high polyreactivity

Question: With “QVQLVESGGGLVQAGGSLRLSCAASGSTFYANAMGWYRQAPGKERELVAVIRWSGGSTYYADSVKGRFTISRDNAKNTVYLQMNSLKPEDTAVYYCNADFYRVAYLRRYSHFDYWGQGTQVTVSS” as the sequence, how does the “polyreactivity (PSR sort gate)” value read?
Answer: high polyreactivity

Question: For “QVQLVESGGGLVQAGGSLRLSCAASGSTFYAYAMGWYRQAPGKERELVAAISSDGTNYADSVKGRFTISRDNAKNTVYLQMNSLKPEDTAVFYCAADLLLYSSQDNDYWGQGTQVTVSS”, which “polyreactivity (PSR sort gate)” value is on record?
Answer: low polyreactivity

Question: Which “polyreactivity (PSR sort gate)” value does the source give for “QVQLVESGGGLVQAGGSLRLSCAASGSTFYAYAMGWYRQAPGKERELVAVITSSGSTYYADSVKGRFTISRDNAKNTVYLQMNSLKPEDTAVYYCARVSYRGYGYWGQGTQVTVSS” here?
Answer: high polyreactivity

Question: Which “polyreactivity (PSR sort gate)” value does the source give for “QVQLVESGGGLVQAGGSLRLSCAASGSTFYAYAMGWYRQAPGKEWELVAAITYSGGTPYYADSVKGRFTISRDNAKNTVYLQMNSLKPEDTAVYYCAARYRGLTGHIDGYWGQGTQVTVSS” here?
Answer: low polyreactivity

Question: With “QVQLVESGGGLVQAGGSLRLSCAASGSTFYAYAMGWYRQAPGTERELVAAITTIGGRTYYADSVKGRFTISRDNAKNTVYLQMNSLKPEDTAVYYCAADIRSNRLYDGGYWGQGTQVTVSS” as the sequence, how does the “polyreactivity (PSR sort gate)” value read?
Answer: low polyreactivity

Question: Which “polyreactivity (PSR sort gate)” value does the source give for “QVQLVESGGGLVQAGGSLRLSCAASGSTFYAYTMGWYRQAPGKERELVARISGRGGSTYYADSVKGRFTISRDIAKNTVYLQMNSLKPEDTAVYYCAARVYGTYRGIQYGYWGQGTQVTVSS” here?
Answer: high polyreactivity

Question: Which “polyreactivity (PSR sort gate)” value does the source give for “QVQLVESGGGLVQAGGSLRLSCAASGSTFYDNAKGWYRQAPGKERELVAGITESGGSTYYADSVKGRFTISRDNAKNTVYLQMNSLKPEDTAVYYCAAVYTYIPYLTYYYWGQGTQVTVSS” here?
Answer: low polyreactivity

Question: With “QVQLVESGGGLVQAGGSLRLSCAASGSTFYDNAMGWYRQAPGKERELVASIRSGGSTKYADSVKGRFTISRDNAKNTVYLQMNSLKPEDTAVYYCAADVHFVKDPPVKSIYGKFYYWGQGTQVTVSS” as the sequence, how does the “polyreactivity (PSR sort gate)” value read?
Answer: low polyreactivity

Question: For “QVQLVESGGGLVQAGGSLRLSCAASGSTFYENTMGWYRQAPGKERELVAAISFRGGSTYYADSVKGRFTISRDNAKNTVYLQMNSLKPEETAVYYCAKEYYTVRLYDYWGQGTQVTVSS”, which “polyreactivity (PSR sort gate)” value is on record?
Answer: low polyreactivity

Question: Which “polyreactivity (PSR sort gate)” value does the source give for “QVQLVESGGGLVQAGGSLRLSCAASGSTFYEYAMGWYRQAPGKERELVAAISSGGSTYYADSVTGRFTISRDNAKNTVYLLMNSLKPEDTAVYYCNADCQTYCGEYDYWGQGTQVTVSS” here?
Answer: low polyreactivity

Question: With “QVQLVESGGGLVQAGGSLRLSCAASGSTFYFNAMGWYRQAPGKERELVATIRSGDSTYYADSVKGRFTISSDNAKNTVYLQMNSLKPVDTAVYSCPGPLPYYGQYDYWGQGTQVTVSS” as the sequence, how does the “polyreactivity (PSR sort gate)” value read?
Answer: low polyreactivity

Question: For “QVQLVESGGGLVQAGGSLRLSCAASGSTFYFYAMGWYREAPGKERELVAAISKRGTSTYYADSVKGRFTISRDNAKNTVYLEMNSLKPEDTAVYFCAADAPRGYNYWGQGTQVTVSS”, which “polyreactivity (PSR sort gate)” value is on record?
Answer: high polyreactivity

Question: Which “polyreactivity (PSR sort gate)” value does the source give for “QVQLVESGGGLVQAGGSLRLSCAASGSTFYFYAMGWYRQAPGKERELVAVISSGGRTYYADSVKGRFTISRDNAKNTVYLQMNSLKPEDTAVYYCAASWPSSLTYYYWGQGTQVTVSS” here?
Answer: low polyreactivity

Question: For “QVQLVESGGGLVQAGGSLRLSCAASGSTFYGNAMGWYRQAPGKERELVAAITWGDASTYYADSVKGRFTISRDNAKNTVYLQMNSLKPEDTAVYYCAVDESYGSSSDMDYWGQGTQVTVSS”, which “polyreactivity (PSR sort gate)” value is on record?
Answer: low polyreactivity

Question: For “QVQLVESGGGLVQAGGSLRLSCAASGSTFYGNMGWYRQAPGKERELVAAITYRGTNTYYADSVKGRFTISRDNAKNTVYLQMNSLKPEDTAVYYCAAEYDVYQGRGRYYGYDYWGQGTQVTVSS”, which “polyreactivity (PSR sort gate)” value is on record?
Answer: high polyreactivity

Question: With “QVQLVESGGGLVQAGGSLRLSCAASGSTFYGYAMGWYRQAPGKERELVAAISSGASTYYADSVKGRFTISRDNAKNSVYLQMNSLKPEDTAVYYCAAYSYPKKYGYWGQGTQVTVSL” as the sequence, how does the “polyreactivity (PSR sort gate)” value read?
Answer: high polyreactivity

Question: With “QVQLVESGGGLVQAGGSLRLSCAASGSTFYGYAMGWYRQAPGKERELVAAISSSATRTYYADSVKGRFTISRDNAKNTVYLQMNSLKPEDTAVYYCAAVSTLLYYHYYTRDYWGQGTQVTVSS” as the sequence, how does the “polyreactivity (PSR sort gate)” value read?
Answer: high polyreactivity

Question: For “QVQLVESGGGLVQAGGSLRLSCAASGSTFYGYAMGWYRQAPGKERELVAAITRSGGSTYYADSVKGRFTISRDNAKNTVYLQMNSLIPEDTEVYYCNKDGYKGGVGYDYWGQGTQVTVSS”, which “polyreactivity (PSR sort gate)” value is on record?
Answer: high polyreactivity

Question: With “QVQLVESGGGLVQAGGSLRLSCAASGSTFYGYAMGWYRQAPGKERELVAVISRSGGGTSYADSVKGRFTISRDNAKNTVYLQMNSLKPEDTAVYYCNAAKYLYRHGFMSAGDMYYWGQGTQVTVSS” as the sequence, how does the “polyreactivity (PSR sort gate)” value read?
Answer: high polyreactivity
